Assay results published in paper PMC12658125, “Oligomerisation of Ku from Mycobacterium tuberculosis promotes DNA synapsis” (Nature Communications, 2025).

Key:
Ku-Mtb [1] = biological target: T1, Ku-Mtb (Mycobacterium tuberculosis, UniProt P9WKD9 1-273); experiment: EMSA; 5 mM MgCl2; settings: protein: recombinant; tags: His (Ni-NTA purified, pET45b); chain copies: 2; blunt
T1 sequence: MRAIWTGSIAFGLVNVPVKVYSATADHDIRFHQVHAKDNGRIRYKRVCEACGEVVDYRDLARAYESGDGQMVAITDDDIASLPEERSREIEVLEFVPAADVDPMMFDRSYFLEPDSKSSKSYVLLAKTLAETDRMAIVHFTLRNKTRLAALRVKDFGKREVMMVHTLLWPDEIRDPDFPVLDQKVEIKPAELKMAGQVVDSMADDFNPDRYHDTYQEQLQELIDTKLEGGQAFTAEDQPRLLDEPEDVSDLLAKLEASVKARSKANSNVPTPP

Ku-Mtb [2] = biological target: T1, Ku-Mtb; experiment: EMSA; settings: protein: recombinant; tags: His (Ni-NTA purified, pET45b); chain copies: 2; label: 5' FAM on strand 1; 3' overhang 20 nt on strand 1
Ku-Mtb [3] = biological target: T1, Ku-Mtb; experiment: FIDA (hydrodynamic radius); settings: protein: recombinant; tags: His (Ni-NTA purified, pET45b); chain copies: 2; label: 5' FAM on strand 1; 3' overhang 20 nt on strand 1

Binder | binding result (Ku-Mtb [1]) | binding result (Ku-Mtb [2]) | binding result (Ku-Mtb [3])
Blunt-DNA 50 bp (dsDNA) DNA 1: CCTCTAGACCTGTACTACTCGAGAGATCGATCGACAGACGATGACTTAGC DNA 2: GCTAAGTCATCGTCTGTCGATCGATCTCTCGAGTAGTACAGGTCTAGAGG | binds | – | –
FAM-DNA, 32 bp with 3' 20dT overhang (mixed) DNA 1: GGAATGTAACCATCGTTGGTCGGCAGCAGGGCTTTTTTTTTTTTTTTTTTTT DNA 2: GCCCTGCTGCCGACCAACGATGGTTACATTCC | – | binds | binds
